Here are results for 1 protein from publication PMC4165486 (Vaccine, 2011).

Data set [1] concerns the molecule itself. As to the kind of experiment: AUC.
Data set [2] deals with the molecule itself. In words: AUC. The source holds these as a separate data set.

B1: poly-epitope P181 (P90-DEG-P77-DEG-P27) (peptide)
chain: TKKLNKELSEGNKELEKLEKNIKELEETNNTLENDIKVEKLKKYNNEISSLKKELDILNEKMGKCTKKRNVEEELHSLRKNYNIINEEIEEIT
modifications: derivatized diethylene glycol (DEG) linker inserted between P90 and P77 and between P77 and P27
As for B1, in the data set “AUC [1]”, the “stoichiometry N” value was found to be 2. The protein also displayed a Kd in the data set “AUC [2]” of 115 µM.
